Laboratory results as given in publication PMC10349818.

How the values were obtained:
[1] = biological target: NavAb N49K/L176Q mutant (Arcobacter butzleri) (UniProt A8EVM5); experiment: crystal structure; protein in DMPC:CHAPSO bicelles, sitting-drop vapour diffusion at 20 °C; cryoprotectant with 2.5 M sodium chloride, with or without 100 mM calcium nitrate; homotetramer around the four-fold axis
[2] = biological target: NavAb N49K/L176G mutant (Arcobacter butzleri) (UniProt A8EVM5); experiment: as above

Row | Substance | stoichiometry N [1] | stoichiometry N [2]
1 | NavAb N49K/L176Q mutant (from UniProt A8EVM5 1-267) (natural protein) | 4 | –
2 | NavAb N49K/L176G mutant (from UniProt A8EVM5 1-267) (natural protein) | – | 4
